From patent publication US6887705B1, “Tyrosine phosphorylated cleavage furrow-associated proteins (PSTPIPs)” (Genentech, Inc., priority 1997, dated 2005)

Assays:
Experiment in all cases: in vitro translated PTP HSCF mutant precipitated with 1 or 10 µg/ml GST PST PIP
[1] = molecular target: T1, PTP HSCF with R436 mutated to alanine, HA tagged (UniProt Q61152 1-453)
T1 construct: range 1-453; also called HSCF R436
T1 sequence (looked up): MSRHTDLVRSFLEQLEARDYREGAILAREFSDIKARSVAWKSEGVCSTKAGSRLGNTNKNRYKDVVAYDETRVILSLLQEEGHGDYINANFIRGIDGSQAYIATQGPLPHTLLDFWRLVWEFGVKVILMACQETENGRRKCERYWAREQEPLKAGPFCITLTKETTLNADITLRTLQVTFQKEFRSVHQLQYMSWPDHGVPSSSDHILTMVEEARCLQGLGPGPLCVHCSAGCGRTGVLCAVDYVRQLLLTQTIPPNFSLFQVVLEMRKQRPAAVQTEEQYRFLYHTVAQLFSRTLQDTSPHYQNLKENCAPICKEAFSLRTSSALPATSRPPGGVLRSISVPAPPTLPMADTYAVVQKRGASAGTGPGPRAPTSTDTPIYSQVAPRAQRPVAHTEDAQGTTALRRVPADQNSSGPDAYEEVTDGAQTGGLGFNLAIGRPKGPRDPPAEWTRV
Description: (§1) Multiple bands precipitated with the GST PST PIP fusion protein are apparently C-terminal proteolyzed products of the PTP. Also shown are GST PST PIP precipitations (10 μg/ml) performed on a double mutant of PTP HSCF (R+W) with both residues $R444$ and $W450$ mutated to alanine (bottom panel FIG. 14 A/2). B. COS cells were co-transfected with a 10:1 ratio of plasmids encoding hemagglutinin (HA) tagged PTP HSCF with the illustrated alanine substitutions or a mutant of PTP HSCF deleted for the C-terminal 24 amino acids (PTP $HSCFD24$) and wild type PST PIP with a C-terminal FLAG epitope tag, respectively. Transfected cell lysates were immunoprecipitated with anti-HA monoclonal antibodies and the precipitates were blotted with anti-PST PIP polyclonal antibody to detect the relative amounts of PST PIP complexed with either wild type or different mutant forms of PTP HSCF. Lysates were also immunoprecipitated with anti-HA antibody and blotted with the same antibody to insure equal expression of PTP HSCF. Equal expression of PSTPIP was determined by immunoprecipitating lysates with anti-FLAG monoclonal antibody and blotting with anti-PST PIP polyclonal antibody.
(§2) In vitro binding analyses between various PTP HSCF and PST PIP constructs were performed as previously described (Spencer et al, (1997), supra). Briefly, plasmids were transcribed and translated in vitro using the TnT Rabbit Reticulocyte Lysate System (Promega). Samples were diluted in 50 mM HEPES, pH 7.2, 1% triton X-100, 10% glycerol, 100 mM NaCl, and 2 µg/ml each of leupeptin, pepstatin, aprotinin and PMSF (lysis buffer). Samples were than reacted with GST fusion proteins at various concentrations, and the bound proteins were centrifuged using glutathione-sepharose beads and analyzed on SDS polyacrylamide gels. C-terminally-derived peptide inhibition studies were performed by incubating the GST fusion protein binding reactions in the presence of 10 µg/ml of the indicated peptides. Peptides were produced by FMOC-protected amino acids as previously described (Spencer et al, (1997), supra). In vivo interactions between various forms of PTP HSCF and PST PIP were also performed as previously described (Spencer et al, (1997), supra).

[2] = molecular target: T2, PTP HSCF with P440 mutated to alanine, HA tagged (UniProt Q61152 1-453)
T2 construct: range 1-453; also called HSCF P440
T2 sequence (looked up): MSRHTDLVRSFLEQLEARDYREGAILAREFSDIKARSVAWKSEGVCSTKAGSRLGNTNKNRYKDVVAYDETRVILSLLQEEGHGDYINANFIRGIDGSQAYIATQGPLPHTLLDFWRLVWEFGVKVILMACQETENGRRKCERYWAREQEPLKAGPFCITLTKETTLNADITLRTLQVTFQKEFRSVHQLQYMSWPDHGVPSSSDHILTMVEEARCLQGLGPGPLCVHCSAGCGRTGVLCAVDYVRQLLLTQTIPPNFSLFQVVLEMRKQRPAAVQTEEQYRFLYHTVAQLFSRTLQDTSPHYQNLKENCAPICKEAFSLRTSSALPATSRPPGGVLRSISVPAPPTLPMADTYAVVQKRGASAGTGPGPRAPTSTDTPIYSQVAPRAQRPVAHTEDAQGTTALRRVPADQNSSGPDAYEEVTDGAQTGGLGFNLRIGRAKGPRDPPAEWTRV
Description: as §1, §2

[3] = molecular target: T3, PTP HSCF with W450 mutated to alanine, HA tagged (UniProt Q61152 1-453)
T3 construct: range 1-453; also called HSCF W450
T3 sequence (looked up): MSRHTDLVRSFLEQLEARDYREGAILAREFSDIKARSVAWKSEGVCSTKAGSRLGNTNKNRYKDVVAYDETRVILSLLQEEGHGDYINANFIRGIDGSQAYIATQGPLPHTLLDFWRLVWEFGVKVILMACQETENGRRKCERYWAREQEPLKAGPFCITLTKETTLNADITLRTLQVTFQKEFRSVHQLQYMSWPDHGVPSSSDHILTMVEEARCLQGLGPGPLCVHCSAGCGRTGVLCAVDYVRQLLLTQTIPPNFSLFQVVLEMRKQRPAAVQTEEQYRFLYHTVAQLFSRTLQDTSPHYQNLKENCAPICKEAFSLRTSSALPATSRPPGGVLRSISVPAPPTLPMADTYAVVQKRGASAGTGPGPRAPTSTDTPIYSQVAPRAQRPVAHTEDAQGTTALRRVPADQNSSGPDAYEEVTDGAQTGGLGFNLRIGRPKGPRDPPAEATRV
Description: as §1, §2

[4] = molecular target: T4, PTP HSCF with P447 mutated to alanine, HA tagged (UniProt Q61152 1-453)
T4 construct: range 1-453; also called HSCF P447
T4 sequence (looked up): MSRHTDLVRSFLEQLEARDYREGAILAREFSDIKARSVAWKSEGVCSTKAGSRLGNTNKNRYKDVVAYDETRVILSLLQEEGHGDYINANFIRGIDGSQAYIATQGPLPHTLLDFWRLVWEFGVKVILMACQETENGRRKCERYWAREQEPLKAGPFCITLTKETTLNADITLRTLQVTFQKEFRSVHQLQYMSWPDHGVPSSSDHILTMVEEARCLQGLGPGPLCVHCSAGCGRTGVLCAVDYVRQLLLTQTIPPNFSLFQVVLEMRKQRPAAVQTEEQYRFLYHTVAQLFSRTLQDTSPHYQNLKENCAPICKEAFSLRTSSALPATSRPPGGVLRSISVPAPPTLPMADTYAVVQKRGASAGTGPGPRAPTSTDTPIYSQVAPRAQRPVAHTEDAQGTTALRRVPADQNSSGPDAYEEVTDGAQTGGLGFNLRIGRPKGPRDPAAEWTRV
Description: as §1, §2

Measured: binding result

B1: GST-PSTPIP (GST fusion of full-length PSTPIP, amino acids 2-415) (other)
chain: MAQLQFRDAFWCRDFTAHTGYEVLLQRLLDGRKMCKDVEELLRQRAQAEERYGKELVQIARKAGGQTEMNSLRTSFDSLKQQTENVGSAHIQLALALREELRSLEEFRERQKEQRKKYEAIMDRVQKSKLSLYKKTMESKKAYDQKCRDADDAEQAFERVSANGHQKQVEKSQNKAKQCKESATEAERVYRQNIEQLERARTEWEQEHRTTCEAFQLQEFDRLTILRNALWVHCNQLSMQCVKDDELYEEVRLTLEGCDVEGDINGFIQSKSTGREPPAPVPYQNYYDREVTPLIGSPSIQPSCGVIKRFSGLLHGSPKTTPSAPAASTETLTPTPERNELVYASIEVQATQGNLNSSAQDYRALYDYTAQNSDELDISAGDILAVILEGEDGWWTVERNGQRGFVPGSYLEKL
notes: Made in DH5-alpha bacteria from pGEX4T-2; also called GST-full-length PSTPIP; GST PTP PIP; not shown: glutathione S-transferase encoded by pGEX-4T-2 (Pharmacia)
binds: all assays above
